Target: GST-NSP3 1–181 (SARS-CoV-2)
Assay: ITC

His-FXR1 215–360 (from UniProt A0A0F7L1S3 215-360) (domain or fragment)
Kd: 2300 to 2900 nM

From publication PMC10897489
